Measurements as given in patent publication US20240409935A1 (UNM RAINFOREST INNOVATIONS, published 2024).

B1: endogenous PKR (enzyme, UniProt P19525 2-551, looked up)
chain: AGDLSAGFFMEELNTYRQKQGVVLKYQELPNSGPPHDRRFTFQVIIDGREFPEGEGRSKKEAKNAAAKLAVEILNKEKKAVSPLLLTTTNSSEGLSMGNYIGLINRIAQKKRLTVNYEQCASGVHGPEGFHYKCKMGQKEYSIGTGSTKQEAKQLAAKLAYLQILSEETSVKSDYLSSGSFATTCESQSNSLVTSTLASESSSEGDFSADTSEINSNSDSLNSSSLLMNGLRNNQRKAKRSLAPRFDLPDMKETKYTVDKRFGMDFKEIELIGSGGFGQVFKAKHRIDGKTYVIKRVKYNNEKAEREVKALAKLDHVNIVHYNGCWDGFDYDPETSDDSLESSDYDPENSKNSSRSKTKCLFIQMEFCDKGTLEQWIEKRRGEKLDKVLALELFEQITKGVDYIHSKKLIHRDLKPSNIFLVDTKQVKIGDFGLVTSLKNDGKRTRSKGTLRYMSPEQISSQDYGKEVDLYALGLILAELLHVCDTAFETSKFFTDLRDGIISDIFDKKEKTLLQKLLSKKPEDRPNTSEILRTLTVWKKSPEKNERHTC
notes: also called EIF2AK2; Protein Kinase R
B2: endogenous PACT (other, UniProt O75569 1-313, looked up)
chain: MSQSRHRAEAPPLEREDSGTFSLGKMITAKPGKTPIQVLHEYGMKTKNIPVYECERSDVQIHVPTFTFRVTVGDITCTGEGTSKKLAKHRAAEAAINILKANASICFAVPDPLMPDPSKQPKNQLNPIGSLQELAIHHGWRLPEYTLSQEGGPAHKREYTTICRLESFMETGKGASKKQAKRNAAEKFLAKFSNISPENHISLTNVVGHSLGCTWHSLRNSPGEKINLLKRSLLSIPNTDYIQLLSEIAKEQGFNITYLDIDELSANGQYQCLAELSTSPITVCHGSGISCGNAQSDAAHNALQYLKIIAERK
notes: also called PRKRA
B3: GFP-PACT (other, UniProt O75569 1-313, looked up)
chain: B2 chain
notes: not shown: GFP
B4: Myc-PKR (enzyme, UniProt P19525 1-551, looked up)
chain: MAGDLSAGFFMEELNTYRQKQGVVLKYQELPNSGPPHDRRFTFQVIIDGREFPEGEGRSKKEAKNAAAKLAVEILNKEKKAVSPLLLTTTNSSEGLSMGNYIGLINRIAQKKRLTVNYEQCASGVHGPEGFHYKCKMGQKEYSIGTGSTKQEAKQLAAKLAYLQILSEETSVKSDYLSSGSFATTCESQSNSLVTSTLASESSSEGDFSADTSEINSNSDSLNSSSLLMNGLRNNQRKAKRSLAPRFDLPDMKETKYTVDKRFGMDFKEIELIGSGGFGQVFKAKHRIDGKTYVIKRVKYNNEKAEREVKALAKLDHVNIVHYNGCWDGFDYDPETSDDSLESSDYDPENSKNSSRSKTKCLFIQMEFCDKGTLEQWIEKRRGEKLDKVLALELFEQITKGVDYIHSKKLIHRDLKPSNIFLVDTKQVKIGDFGLVTSLKNDGKRTRSKGTLRYMSPEQISSQDYGKEVDLYALGLILAELLHVCDTAFETSKFFTDLRDGIISDIFDKKEKTLLQKLLSKKPEDRPNTSEILRTLTVWKKSPEKNERHTC
notes: not shown: Myc tag
B5: GFP-PKR (enzyme, UniProt P19525 1-551, looked up)
chain: B4 chain
notes: not shown: GFP
B6: ALIX (cellular) (other, UniProt Q8WUM4 2-868, looked up)
chain: ATFISVQLKKTSEVDLAKPLVKFIQQTYPSGGEEQAQYCRAAEELSKLRRAAVGRPLDKHEGALETLLRYYDQICSIEPKFPFSENQICLTFTWKDAFDKGSLFGGSVKLALASLGYEKSCVLFNCAALASQIAAEQNLDNDEGLKIAAKHYQFASGAFLHIKETVLSALSREPTVDISPDTVGTLSLIMLAQAQEVFFLKATRDKMKDAIIAKLANQAADYFGDAFKQCQYKDTLPKEVFPVLAAKHCIMQANAEYHQSILAKQQKKFGEEIARLQHAAELIKTVASRYDEYVNVKDFSDKINRALAAAKKDNDFIYHDRVPDLKDLDPIGKATLVKSTPVNVPISQKFTDLFEKMVPVSVQQSLAAYNQRKADLVNRSIAQMREATTLANGVLASLNLPAAIEDVSGDTVPQSILTKSRSVIEQGGIQTVDQLIKELPELLQRNREILDESLRLLDEEEATDNDLRAKFKERWQRTPSNELYKPLRAEGTNFRTVLDKAVQADGQVKECYQSHRDTIVLLCKPEPELNAAIPSANPAKTMQGSEVVNVLKSLLSNLDEVKKEREGLENDLKSVNFDMTSKFLTALAQDGVINEEALSVTELDRVYGGLTTKVQESLKKQEGLLKNIQVSHQEFSKMKQSNNEANLREEVLKNLATAYDNFVELVANLKEGTKFYNELTEILVRFQNKCSDIVFARKTERDELLKDLQQSIAREPSAPSIPTPAYQSSPAGGHAPTPPTPAPRTMPPTKPQPPARPPPPVLPANRAPSATAPSPVGAGTAAPAPSQTPGSAPPPQAQGPPYPTYPGYPGYCQMPMPMGYNPYAYGQYNMPYPPVYHQSPGQAPYPGPQQPSYPFPQPPQQSYYPQQ
notes: also called PDCD6IP

Key:
FLAG-ALIX (full length) [1] = target: T1, FLAG-ALIX (full length) (UniProt Q8WUM4 1-868); test: co-IP with anti-FLAG from HEK293T cells, 1 mM LLOMe 30 min
T1 construct: also called full-length ALIX; not shown: FLAG tag
T1 sequence (looked up): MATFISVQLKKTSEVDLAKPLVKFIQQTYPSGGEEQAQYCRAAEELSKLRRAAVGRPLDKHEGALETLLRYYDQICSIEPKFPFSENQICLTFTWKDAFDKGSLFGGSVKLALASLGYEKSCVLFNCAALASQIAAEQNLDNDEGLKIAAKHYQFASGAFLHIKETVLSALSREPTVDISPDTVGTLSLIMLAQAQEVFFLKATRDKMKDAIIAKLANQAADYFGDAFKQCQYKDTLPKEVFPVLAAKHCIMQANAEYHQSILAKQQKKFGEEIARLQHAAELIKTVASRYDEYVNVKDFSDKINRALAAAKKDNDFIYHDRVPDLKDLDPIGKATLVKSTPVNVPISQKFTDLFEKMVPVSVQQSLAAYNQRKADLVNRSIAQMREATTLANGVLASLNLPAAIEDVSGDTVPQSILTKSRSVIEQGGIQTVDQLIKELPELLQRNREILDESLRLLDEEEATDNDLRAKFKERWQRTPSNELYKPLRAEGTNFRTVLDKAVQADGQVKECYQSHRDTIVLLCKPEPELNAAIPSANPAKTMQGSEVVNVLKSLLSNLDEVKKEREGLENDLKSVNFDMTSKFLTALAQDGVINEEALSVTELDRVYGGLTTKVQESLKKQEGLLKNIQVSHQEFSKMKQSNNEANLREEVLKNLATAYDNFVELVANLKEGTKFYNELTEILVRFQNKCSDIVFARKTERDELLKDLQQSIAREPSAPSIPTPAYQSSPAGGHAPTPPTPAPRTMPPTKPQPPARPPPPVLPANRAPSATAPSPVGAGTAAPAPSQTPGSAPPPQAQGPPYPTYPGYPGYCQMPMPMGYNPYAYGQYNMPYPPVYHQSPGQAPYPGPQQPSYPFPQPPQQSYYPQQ

FLAG-eIF2α = target: T2, FLAG-eIF2α (UniProt P05198 1-315); test: as above
T2 construct: not shown: FLAG tag

FLAG-PKR = target: T3, FLAG-PKR (UniProt P19525 1-551); test: co-IP of FLAG-PKR and PACT in HEK293T cells
T3 construct: not shown: FLAG tag

endogenous PKR = target: B1; test: co-IP with anti-GFP from HEK293T cells transfected with FLAG or FLAG-ALIX, 1 mM LLOMe 30 min
ALIX (cellular) = target: B6; test: confocal microscopy of GFP-PKR/PACT and ALIX in U2OS cells, 2 mM LLOMe
FLAG-ALIX (full length) [2] = target: T1, FLAG-ALIX (full length); test: co-IP with anti-FLAG from HEK293T cells expressing FLAG tagged ALIX constructs and Myc-PKR
APEX2-eIF2α = target: T4, APEX2-eIF2α (UniProt P05198 1-315); test: APEX2-eIF2α proximity biotinylation, LC/MS/MS, LLOMe against control
T4 construct: also called APEX2-eIF2α fusion
T4 sequence (P05198 whole entry, the tested form may be a part): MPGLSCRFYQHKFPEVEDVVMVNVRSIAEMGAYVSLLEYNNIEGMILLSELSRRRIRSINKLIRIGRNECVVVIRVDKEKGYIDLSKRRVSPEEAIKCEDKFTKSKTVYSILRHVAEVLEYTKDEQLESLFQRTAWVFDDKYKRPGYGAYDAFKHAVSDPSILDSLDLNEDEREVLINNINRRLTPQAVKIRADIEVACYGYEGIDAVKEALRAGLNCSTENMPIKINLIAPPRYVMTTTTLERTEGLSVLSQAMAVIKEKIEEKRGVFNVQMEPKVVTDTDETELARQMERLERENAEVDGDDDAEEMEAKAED

T2 sequence (P05198 whole entry): as the sequence (P05198 whole entry, the tested form may be a part) above

B1
binding result (FLAG-ALIX (full length) [1]): binds

B2
binding result (FLAG-eIF2α): binds
binding result (FLAG-ALIX (full length) [1]): binds
binding result (FLAG-PKR): binds

B3
binding result (endogenous PKR): binds
binding result (ALIX (cellular)): binds

B4
binding result (FLAG-ALIX (full length) [2]): binds

B5
binding result (ALIX (cellular)): binds

B6
fold increase in association with eIF2α (LLOMe/CTR) (APEX2-eIF2α): > 10 fold
